Results on three variants are retold here after paper PMC8679000, “Biochemical Characterizations of Human TMPK Mutations Identified in Patients with Severe Microcephaly: Single Amino Acid Substitutions Impair Dimerization and Abolish Their Catalytic Activity” (ACS Omega, 2021).

B1: wild-type human deoxythymidylate kinase (TMPK) [human] / itself (parent)
chain: MAARRGALIVLEGVDRAGKSTQSRKLVEALCAAGHRAELLRFPERSTEIGKLLSSYLQKKSDVEDHSVHLLFSANRWEQVPLIKEKLSQGVTLVVDRYAFSGVAFTGAKENFSLDWCKQPDVGLPKPDLVLFLQLQLADAAKRGAFGHERYENGAFQERALRCFHQLMKDTTLNWKMVDASKSIEAVHEDIRVLSEDAIRTATEKPLGELWK

Variants of B1 are the subject of the experiment. Briefly: size-exclusion chromatography, protein concentration of fractions. To be noted: with itself, 200 µg enzyme loaded, 0.4 mL fractions. A general note: Size exclusion chromatography separates by hydrodynamic size, large species first.
Where [1] appears, read: fraction F18 (monomer fraction).
Where [2] appears, read: fraction F19 (monomer fraction).
Setting [3] is: fraction F20 (monomer fraction).

Regarding MAARRGALIVLEGVDRAGKSTQSRKLVEALCAAGHRAELLRFPERSTEIGKLLSSYLQKKSDVEDHSVHLLFSANRWEQVLLIKEKLSQGVTLVVDRYAFSGVAFTGAKENFSLDWCKQPDVGLPKPDLVLFLQLQLADAAKRGAFGHERYENGAFQERALRCFHQLMKDTTLNWKMVDASKSIEAVHEDIRVLSEDAIRTATEKPLGELWK [chain 1 P81L], the screen value runs as follows: (fraction F15 (dimer fraction)) 0.002 mg/mL; (fraction F16 (dimer fraction)) 0.009 mg/mL; under setting [1], 0.024 mg/mL; under setting [2], 0.016 mg/mL; under setting [3], 0.013 mg/mL.

Take MAARRGALIVLEGVDRAGKSTQSRKLVEALCAAGHRAELLRFPERSTEIGKLLSSYLQKKSDVEDHSVHLLFSANRWEQVPLIKEKLSQGVTLVVDRYAFSGVAFTGAKENFSLDWCKQPDVGLPKPNLVLFLQLQLADAAKRGAFGHERYENGAFQERALRCFHQLMKDTTLNWKMVDASKSIEAVHEDIRVLSEDAIRTATEKPLGELWK [chain 1 D128N]: the screen value by setting is: (fraction F15 (dimer fraction)) 0.004 mg/mL; (fraction F16 (dimer fraction)) 0.005 mg/mL; under setting [1], 0.016 mg/mL; under setting [2], 0.019 mg/mL; under setting [3], 0.012 mg/mL.

With MAARRGALIVLEGVDRAGKSTQSRKLVEALCAAGHRAELLRFPERSTEIGKLLSSYLQKKSDVEDHSVHLLFSANRWEQVPLIKEKLSQGVTLVVDRYTFSGVAFTGAKENFSLDWCKQPDVGLPKPDLVLFLQLQLADAAKRGAFGHERYENGAFQERALRCFHQLMKDTTLNWKMVDASKSIEAVHEDIRVLSEDAIRTATEKPLGELWK [chain 1 A99T], the screen value reads like this: (fraction F15 (dimer fraction)) 0.006 mg/mL; (fraction F16 (dimer fraction)) 0.01 mg/mL; under setting [1], 0.019 mg/mL; under setting [2], 0.015 mg/mL; under setting [3], 0.012 mg/mL.
